This note sets out measurements from US20210221885A1.

The target in this experiment is Eu3+ cryptate labeled TIM3 (Cisbio kit, cat# 63ADK000CTLPEB) (human) (UniProt Q8TDQ0). The experiment is described as follows: HTRF blocking assay (Cisbio kit), antibody added to a mixture of Tim3-EuK and Tag-Gal9; blocked ligand galectin-9; the unit is that of the concentration axis.
Eu3+ cryptate labeled TIM3 (Cisbio kit, cat# 63ADK000CTLPEB) (human), sequence (Q8TDQ0 22-202 limits assumed): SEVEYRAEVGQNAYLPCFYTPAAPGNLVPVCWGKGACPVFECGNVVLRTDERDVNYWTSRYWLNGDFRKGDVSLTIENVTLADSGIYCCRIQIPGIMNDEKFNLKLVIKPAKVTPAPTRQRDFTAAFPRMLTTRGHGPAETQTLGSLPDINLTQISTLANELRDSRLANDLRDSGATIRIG

“F38-2E2 (ebioscience, cat#16-3109-85) (antibody)”: the IC50 – broadly, the concentration needed to halve the response being measured – is 5.74 nM.
